Reference: publication PMC9088798, “An Approach to Derive Functional Peptide Inhibitors of Transcription Factor Activity” (JACS Au, 2022)

What was measured:
cJun bZIP domain [1] = biological target: cJun bZIP domain (UniProt P05412); assay: circular dichroism thermal denaturation; loss of CD signal at 222 nm with temperature; total peptide 10 μM, equimolar components
cJun bZIP domain [2] = biological target: cJun bZIP domain (UniProt P05412)
cJun bZIP domain [3] = biological target: cJun bZIP domain (UniProt P05412); assay: circular dichroism spectra; CD spectra at 20 °C; heterodimeric sample compared with the average of the component spectra; total peptide 10 μM, equimolar components
cJun bZIP domain [4] = biological target: cJun bZIP domain (UniProt P05412); assay: ITC; antagonist peptide injected into cJun; single-site binding model
cJun bZIP domain [5] = biological target: cJun bZIP domain (UniProt P05412); remark: listed apart in the source
cJun bZIP domain [6] = biological target: cJun bZIP domain (UniProt P05412); remark: listed apart in the source

Chain of cJun bZIP domain (P05412 252-315): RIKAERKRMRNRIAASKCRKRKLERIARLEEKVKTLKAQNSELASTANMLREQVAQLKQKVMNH

Row | Tm of the heterodimer (cJun bZIP domain [1]) [°C] | IC50 of reversal of the TRE DNA CD peak shift at ~281 nm; blocks cJun binding to TRE DNA (cJun bZIP domain [2]) [µM] | ΔTm of the heterodimer against the average of the component denaturation profiles (cJun bZIP domain [1]) [°C] | increase in α-helical content over the average of the component spectra (cJun bZIP domain [3]) [%] | Kd (cJun bZIP domain [4]) [µM] | dH (cJun bZIP domain [4]) [kcal/mol] | stoichiometry N (cJun bZIP domain [4]) | TBS assay in E. coli: colony numbers relative to TRE-mDHFR only (removal of the cJun transcriptional block) (cJun bZIP domain [5]) [%] | IC50 of restoration of the free TRE DNA band in EMSA (cJun bZIP 20 μM, TRE DNA 2 μM); blocks cJun binding to TRE DNA (cJun bZIP domain [6]) [µM] | IC50 of reversal of the TRE DNA CD peak shift at ~281 nm (cJun 20 μM, TRE DNA 5 μM); blocks cJun binding to TRE DNA (cJun bZIP domain [2]) [µM] | Substance
1 | 54 | 120 |  |  |  |  |  |  |  |  | FosW (designed binder)
2 | 69.9 |  | 27.5 | 39 | 0.0883 | -36.5 | 1.04 | 60 | 12.1 | 16 | A-FosW (designed binder)
